Assay results as given in patent US20210115103A1.

These substances were tested against AM receptor expressed in a cultured cell line (HEK293 cell line) (assay: cell-based or functional assay).

Relative activity (%) (vs. hAM), intracellular cAMP, compound at 10^-6 M	Substance
27	amidated compound of Example 1: (IgG1 Fc Region)+(Linker S)+(AM-Gly), amidated (Fc fusion)
11	amidated compound of Example 2: (IgG1 Fc Region)+(Linker K)+(AM-Gly), amidated (Fc fusion)
27	amidated compound of Example 3: (IgG4 Fc Region)+(Linker S)+(AM-Gly), amidated (Fc fusion)
49	amidated compound of Example 4: (IgG4 Fc Region)+(Linker K)+(AM-Gly), amidated (Fc fusion)
88	amidated compound of Example 5: (IgG1 Fc Region)+(Linker S)+(AM (6-52)-Gly), amidated (Fc fusion)
70	amidated compound of Example 6: (IgG1 Fc Region)+(Linker K)+(AM (6-52)-Gly), amidated (Fc fusion)
68	amidated compound of Example 7: (IgG1 Fc Region)+(Linker S)+(AM (11-52)-Gly), amidated (Fc fusion)
48	amidated compound of Example 8: (IgG1 Fc Region)+(Linker K)+(AM (11-52)-Gly), amidated (Fc fusion)
54	amidated compound of Example 9: (IgG4 Fc Region)+(Linker S)+(AM (6-52)-Gly), amidated (Fc fusion)
39	amidated compound of Example 10: (IgG4 Fc Region)+(Linker K)+(AM (6-52)-Gly), amidated (Fc fusion)
36	amidated compound of Example 11: (IgG4 Fc Region)+(Linker S)+(AM (11-52)-Gly), amidated (Fc fusion)
48	amidated compound of Example 12: (IgG4 Fc Region)+(Linker K)+(AM (11-52)-Gly), amidated (Fc fusion)
